Measured values published in publication PMC2148113 (The Journal of Cell Biology, 1999).

B1: mature MycBMP4 (domain or fragment, mouse, UniProt P21275 293-408, looked up)
chain: SPKHHPQRSRKKNKNCRRHSLYVDFSDVGWNDWIVAPPGYQAFYCHGDCPFPLADHLNSTNHAIVQTLVNSVNSSIPKACCVPTELSAISMLYLDEYDKVVLKNYQEMVVEGCGCR

Key:
[1] = biological target: Flag-tagged Nodal precursor (mouse); experiment: non-reducing SDS-PAGE with immunoblot
[2] = biological target: the molecule itself; experiment: non-reducing SDS-PAGE with immunoblot

Molecule | stoichiometry N [1] | stoichiometry N [2]
Flag-tagged Nodal precursor (natural protein) | 2 | 
B1 |  | 2
